Assay results published in patent publication US11566081B2, “Anti-acetaminophen antibodies and acetaminophen protein adducts” (BioVentures, LLC, priority 2014, dated 2023).

B1: 22-8: rabbit monoclonal antibody to acetaminophen-protein adduct, immunogen CP-2IT-APAP; light chain SEQ ID NO:15, heavy chain SEQ ID NO:16 (antibody)
heavy: METGLRWLLLVAVLKGVQCQSLEESGGRLVTPGGSLTLTCTASGLTINNYYIIWVRQAPGKGLKYIGITYGGGFAYYASWAKGRFTISRTSTTVDLKMTSLTAEDTATYFCVRAAAGGAYDLWGQGTLVTVSSGQPKAPSVFPLAPCCGDTPSSTVTLGCLVKGYLPEPVTVTWNSGTLTNGVRTFPSVRQSSGLYSLSSVVSVTSSSQPVTCNVAHPATNTKVDKTVAPSTCSKPTCPPPELLGGPSVFIFPPKPKDTLMISRTPEVTCVVVDVSQDDPEVQFTWYINNEQVRTARPPLREQQFNSTIRVVSTLPIAHQDWLRGKEFKCKVHNKALPAPIEKTISKARGQPLEPKVYTMGPPREELSSRSVSLTCMINGFYPSDISVEWEKNGKAEDNYKTTPAVLDSDGSYFLYSKLSVPTSEWQRGDVFTCSVMHEALHNHYTQKSISRSPGK
light: MDTRAPTQLLGLLLLWLPGATFAIEMTQTPSPVSAVVGGTVTINCQSSQNVFRKNYLSWFQQKPGQPPKLLISYIDSLTSGVPSRFSGSGAGTQFTLTISDVQCDDAATYYCLGVDGSANDATFGGGTEVVVEGDPVAPTVLIFPPAADQVATGTVTIVCVANKYFPDVTVTWEVDGTTQTTGIENSKTPQNSADCTYNLSSTLTLTSTQYNSHKEYTCKVTQGTTSVVQSFNRGDC
B2: 14-12: rabbit monoclonal antibody to acetaminophen-protein adduct, immunogen CP-2IT-APAP; light chain SEQ ID NO:13, heavy chain SEQ ID NO:14 (antibody)
heavy: METGLRWLLLVAVLKGVQCQSVEESGGRLVTPGTPLTLTCTVSGFSINAYGINWVRQAPGKGLEYIGFSAPHTASYARWTKGRFTMSRTSTTVDLRMTSPTTEDTATYFCARYDRGGMVFNLWGQGTLVTVSSGQPKAPSVFPLAPCCGDTPSSTVTLGCLVKGYLPEPVTVTWNSGTLTNGVRTFPSVRQSSGLYSLSSVVSVTSSSQPVTCNVAHPATNTKVDKTVAPSTCSKPTCPPPELLGGPSVFIFPPKPKDTLMISRTPEVTCVVVDVSQDDPEVQFTWYINNEQVRTARPPLREQQFNSTIRVVSTLPIAHQDWLRGKEFKCKVHNKALPAPIEKTISKARGQPLEPKVYTMGPPREELSSRSVSLTCMINGFYPSDISVEWEKNGKAEDNYKTTPAVLDSDGSYFLYSKLSVPTSEWQRGDVFTCSVMHEALHNHYTQKSISRSPGK
light: MDTRAPTQLLGLLLLWLPGATFALVMTQTPSSVPAAVGGTVTIGCQASQSISRQVSWYQQKPGQPPKLLIYRASTLASGVSSRFKGSGSGTEFTLTISGVQCDDAATYYCLGIVTDRIADGLAFGGGTEVVVKGDPVAPTVLIFPPAADQVATGTVTIVCVANKYFPDVTVTWEVDGTTQTTGIENSKTPQNSADCTYNLSSTLTLTSTQYNSHKEYTCKVTQGTTSVVQSFNRGDC

System: acetaminophen protein adduct (BSA-APAP, 3-(cystein-S-yl)acetaminophen)
Test: Competitive ELISA: relative inhibitory potency of APAP-protein adduct (BSA-APAP) versus free APAP
Type: binding
Details: inhibitors BSA-APAP vs APAP on a molar basis, clone supernatant final dilution 1:500
From the text: Tissue culture supernatants from Rabbit monoclonal antibody clone 14-12 at a dilution of 1:250 was mixed with serial 4-fold dilutions of inhibitor (either BSA-APAP or APAP) such that the final dilution of RmAb was 1:500. The final concentrations of APAP were 80, 20, 5, 1.25, and 0.31 nmole per ELISA well. The final concentrations of APAP-BSA (quantified by HPLC-EC as APAP-Cys from the hydrolyzed protein) were 10, 2.5, 0.625, 0.156, and 0.04 pmole per ELISA well.
Synthetically prepared acetaminophen-protein adduct (BSA-APAP) and free drug (APAP) were evaluated in competitive ELISA to determine their relative capacity, on a molar basis, to inhibit the binding of clone 14-12 rabbit monoclonal antibody to solid-phase immobilized acetaminophen protein adduct. […] Restated, clone 14-12 antibody has approximately 8000 times more affinity for acetaminophen protein adduct than it does for free APAP as measured in this ELISA context.
The competitive ELISA was repeated with rabbit monoclonal antibody (RMAb) 14-12 and rabbit monoclonal antibody (RMAb) 22-8. […] After incubation and washing, bound RMAb was detected using Goat anti-Rabbit-IgG conjugated to HRP followed by the substrate TMB and color development was determined using an ELISA plate reader. […]

Molecule	times more affinity for acetaminophen protein adduct than for free APAP
B1	approximately 1250 times
B2	approximately 8000 times
